From publication PMC5337984, “CTCF participates in DNA damage response via poly(ADP-ribosyl)ation”

Target: T1, CTCF ZNF1-11 (GST-zinc finger domain) (human, UniProt P49711 266-577)
T1 sequence: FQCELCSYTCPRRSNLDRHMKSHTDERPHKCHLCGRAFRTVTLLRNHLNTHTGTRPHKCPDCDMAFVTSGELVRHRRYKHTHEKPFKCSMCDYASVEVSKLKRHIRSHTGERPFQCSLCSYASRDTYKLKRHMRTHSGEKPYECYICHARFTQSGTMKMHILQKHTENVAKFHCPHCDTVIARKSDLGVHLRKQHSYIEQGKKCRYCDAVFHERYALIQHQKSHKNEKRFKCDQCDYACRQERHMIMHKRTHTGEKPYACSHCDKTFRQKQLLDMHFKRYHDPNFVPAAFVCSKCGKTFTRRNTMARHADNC
Test: EMSA; 50 mM MgCl2; 200 ng poly(dI/dC); EMSA: 25 mM HEPES pH 8.0, 50 mM KCl, 50 mM MgCl2, 1% NP40, 10% glycerol, 200 ng poly(dI/dC), 20 min at 4 C; 1 pmol protein, 0.5 pmol DNA
Details: protein: recombinant; tags: GST (pGEX-4T-1; N-terminal); label: 32P; blunt (only one strand printed; described as duplex oligonucleotide)

B1: insulator DNA 45-mer (dsDNA)
DNA 1: CCCCCAGGGATGTAATTACGTCCCTCCCCCGCTAGGGGGCAGCAG
DNA 2: CTGCTGCCCCCTAGCGGGGGAGGGACGTAATTACATCCCTGGGGG
B1: binds.
